Starred links: 1 amine or outer side, 2 acyl side, 3 side chain; linkers in the order of their positions; H or OH if unused. Positions of bridges follow the written chain, without caps; N, C: chain ends. Non-standard residues stand in square brackets, D forms with d. Primed or numbered codes have the meaning given here. No end group written: not given here. *: point of attachment. PyrS2″ = (S)-3-amino-1-((pent-4-en-1-yloxy)carbonyl)pyrrolidine-3-carboxylic acid (stapling residue), C=CCCCOC(=O)N1CC[C@@](N[*:1])(C(=O)[*:2])C1; B5(4) = 2,2-bis(4-pentenyl)glycine = 2-amino-2-(pent-4-en-1-yl)hept-6-enoic acid (stitching residue), C=CCCCC(CCCC=C)(N[*:1])C(=O)[*:2]; B5(5) = 2,2-bis(4-pentenyl)glycine, 2-amino-2-(pent-4-en-1-yl)hept-6-enoic acid (stitching residue), C=CCCCC(CCCC=C)(N[*:1])C(=O)[*:2]; TfeGA = (S)-2-amino-3-((carboxymethyl)(2,2,2-trifluoroethyl)amino)propanoic acid, O=C([C@H](CN(CC(=O)[*:3])CC(F)(F)F)N[*:1])[*:2]; PyrS2 = (S)-3-amino-1-((pent-4-en-1-yloxy)carbonyl)pyrrolidine-3-carboxylic acid, C=CCCCOC(=O)N1CC[C@@](N[*:1])(C(=O)[*:2])C1; (Pip)GlnR = (S)-2-amino-5-oxo-5-(piperidin-1-yl)pentanoic acid, O=C(CC[C@H](N[*:1])C(=O)[*:2])N1CCCCC1; B5(3) = 2,2-bis(4-pentenyl)glycine (stitching residue), C=CCCCC(CCCC=C)(N[*:1])C(=O)[*:2]; ProSAm3 = (allylsulfonyl)-D-proline, C=CCS(=O)(=O)N1CCC[C@@H]1C(=O)*; Phe(3-COOH) = N[C@@H](Cc1cccc(C(=O)O)c1)C(=O)O; Phe(2-CF3) = N[C@@H](Cc1ccccc1C(F)(F)F)C(=O)O; Bta = N[C@@H](Cc1csc2ccccc12)C(=O)O; Lys(iPr) = CC(C)NCCCC[C@H](N)C(=O)O; αAllylPro = C=CC[C@@]1(C(=O)O)CCCN1; tBuAla = CC(C)(C)C[C@H](N)C(=O)O; 3Thi = N[C@@H](Cc1ccsc1)C(=O)O; R5 = C=CCCC[C@@](C)(N)C(=O)O; 2F3MeF(3) = Phe analogue; Abu = CC[C@H](N)C(=O)O; Aib = CC(C)(N)C(=O)O
B1: I-1577 (peptide)
peptide: [ProSAm3]D[tBuAla][B5(4)]DDAAFN[PyrS2″][3Thi][Bta]Q-NH2
modifications: staple (positions not given here); staple 4-11; not fully specified (bridges); printed as ProSAm3-Asp-Npg-B5-Asp-Asp-Ala-Ala-Phe-Asn-PyrS2-3Thi-BztA-Gln-NH2; also: staple isomer of later-eluting HPLC peak

target: full-length beta-Catenin (Uniprot ID P35222) (Homo sapiens (Human)) (UniProt P35222); assay: fluorescence polarization competition; full-length beta-catenin, 5FAM-TCF4(10-53) probe as competitor
Target sequence in this assay (P35222 2-781 limits assumed): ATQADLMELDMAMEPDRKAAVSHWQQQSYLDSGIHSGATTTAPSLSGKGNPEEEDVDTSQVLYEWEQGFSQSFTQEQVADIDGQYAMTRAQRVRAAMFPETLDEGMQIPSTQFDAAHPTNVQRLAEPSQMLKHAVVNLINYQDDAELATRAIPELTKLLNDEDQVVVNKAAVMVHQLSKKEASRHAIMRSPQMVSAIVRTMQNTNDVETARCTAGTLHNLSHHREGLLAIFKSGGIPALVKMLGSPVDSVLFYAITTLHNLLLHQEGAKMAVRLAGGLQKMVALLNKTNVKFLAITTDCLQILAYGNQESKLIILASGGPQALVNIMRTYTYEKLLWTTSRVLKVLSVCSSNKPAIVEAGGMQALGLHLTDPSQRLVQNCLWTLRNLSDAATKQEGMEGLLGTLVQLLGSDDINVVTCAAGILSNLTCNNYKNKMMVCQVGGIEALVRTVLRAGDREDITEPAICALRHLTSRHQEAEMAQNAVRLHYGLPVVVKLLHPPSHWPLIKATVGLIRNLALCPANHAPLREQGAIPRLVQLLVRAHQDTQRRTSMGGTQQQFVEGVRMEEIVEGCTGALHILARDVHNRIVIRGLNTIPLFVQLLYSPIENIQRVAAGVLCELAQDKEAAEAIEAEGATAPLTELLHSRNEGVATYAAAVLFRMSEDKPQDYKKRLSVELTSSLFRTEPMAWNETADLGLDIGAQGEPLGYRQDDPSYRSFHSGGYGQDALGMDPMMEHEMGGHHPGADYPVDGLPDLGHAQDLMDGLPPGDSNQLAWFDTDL

In order of rising IC50:
1. Ac-[αAllylPro]D[tBuAla][B5(3)]D[Phe(3-COOH)][Aib]AF[Abu][PyrS2″][3Thi][Bta][Me2Gln]A-NH2 (staple 1-4, 4-11) [Ac-PL3-Asp-Npg-B5-Asp-3COOHF-Aib-Ala-Phe-Abu-PyrS2-3Thi-BztA-Me2Gln-Ala-NH2]  7 nM
2. Ac-[αAllylPro]D[tBuAla][B5(5)]D[Phe(3-COOH)][Aib]AF[Abu][PyrS2″][3Thi][Bta][(NHEt)GlnR]A-NH2 (staple 1-4, 4-11) [Ac-PL3-Asp-Npg-B5-Asp-3COOHF-Aib-Ala-Phe-Abu-PyrS2-3Thi-BztA-[NHEt]GlnR-Ala-NH2]  7 nM
3. Ac-[αAllylPro]D[tBuAla][B5(5)]D[Phe(3-COOH)][Aib]AF[Abu][PyrS2″][3Thi][Bta][(Pip)GlnR]A-NH2 (staple 1-4, 4-11) [Ac-PL3-Asp-Npg-B5-Asp-3COOHF-Aib-Ala-Phe-Abu-PyrS2-3Thi-BztA-[Pip]GlnR-Ala-NH2]  7 nM
4. Ac-[αAllylPro]D[tBuAla][B5(3)]D[TfeGA]AAFL[PyrS2″][3Thi][Bta][Me2Gln]A-NH2 (staple 1-4, 4-11) [Ac-PL3-Asp-Npg-B5-Asp-TfeGA-Ala-Ala-Phe-Leu-PyrS2-3Thi-BztA-Me2Gln-Ala-NH2]  10 nM
5. Ac-[αAllylPro]D[tBuAla][B5(3)]D[TfeGA]AAFL[PyrS2″][3Thi][Bta][(NHEt)GlnR]A-NH2 (staple 1-4, 4-11) [Ac-PL3-Asp-Npg-B5-Asp-TfeGA-Ala-Ala-Phe-Leu-PyrS2-3Thi-BztA-[NHEt]GlnR-Ala-NH2]  14 nM
6. Ac-[αAllylPro]D[tBuAla][B5(5)]D[Phe(3-COOH)]AAFL[PyrS2″][Phe(2-CF3)][Bta][Me2Gln]A-NH2 (staple 1-4, 4-11) [Ac-PL3-Asp-Npg-B5-Asp-3COOHF-Ala-Ala-Phe-Leu-PyrS2-2F3MeF-BztA-Me2Gln-Ala-NH2]  15 nM
7. Ac-[αAllylPro]D[tBuAla][B5(5)]D[TfeGA]AAFL[PyrS2″][3Thi][Bta][(Pip)GlnR]A-NH2 (staple 1-4, 4-11) [Ac-PL3-Asp-Npg-B5-Asp-TfeGA-Ala-Ala-Phe-Leu-PyrS2-3Thi-BztA-[Pip]GlnR-Ala-NH2]  19 nM
8. Ac-[αAllylPro]D[tBuAla][B5(5)]D[Phe(3-COOH)]AAFL[PyrS2″][Phe(2-CF3)][Bta][(NHEt)GlnR]A-NH2 (staple 1-4, 4-11) [Ac-PL3-Asp-Npg-B5-Asp-3COOHF-Ala-Ala-Phe-Leu-PyrS2-2F3MeF-BztA-[NHEt]GlnR-Ala-NH2]  24 nM
9. Ac-[αAllylPro]D[tBuAla][B5(3)]D[Phe(3-COOH)][Aib]AF[Abu][PyrS2″][Phe(2-CF3)][Bta][Me2Gln]A-NH2 (staple 1-4, 4-11) [Ac-PL3-Asp-Npg-B5-Asp-3COOHF-Aib-Ala-Phe-Abu-PyrS2-2F3MeF-BztA-Me2Gln-Ala-NH2]  38 nM
10. B1  45 nM
11. Ac-[αAllylPro]D[tBuAla][B5(3)]D[Phe(3-COOH)]QAFL[PyrS2″][Phe(2-CF3)][RbMe2NapA]A-NH2 (staple 1-4, 4-11) [Ac-PL3-Asp-Npg-B5-Asp-3COOHF-Gln-Ala-Phe-Leu-PyrS2-2F3MeF-RbMe2NapA-Ala-NH2]  47 nM
12. Ac-[αAllylPro]D[tBuAla][B5(3)]D[Phe(3-COOH)]QAFL[PyrS2″][2F3MeF(3)][SbMe2NapA]A-NH2 (staple 1-4, 4-11) [Ac-PL3-Asp-Npg-B5-Asp-3COOHF-Gln-Ala-Phe-Leu-PyrS2-2F3MeF-SbMe2NapA-Ala-NH2]  164 nM
13. Ac-[αAllylPro]D[tBuAla][B5(3)]NT[Aib]AFN[PyrS2″][3Thi][Bta]K-NH2 (staple 1-4, 4-11) [Ac-PL3-Asp-Npg-B5-Asn-Thr-Aib-Ala-Phe-Asn-PyrS2-3Thi-BztA-Lys-NH2]  165 nM
14. Ac-[αAllylPro]D[tBuAla][B5(3)]NT[Aib]AFN[PyrS2″][3Thi][Bta]Y-NH2 (staple 1-4, 4-11) [Ac-PL3-Asp-Npg-B5-Asn-Thr-Aib-Ala-Phe-Asn-PyrS2-3Thi-BztA-Tyr-NH2]  310 nM
15. Ac-PD[tBuAla][R5]DDAAFL[PyrS2][3Thi][Bta]Q-NH2 (staple 4-11; also: staple -CH=CH- reduced to -CH2-CH2-) [I-1810]  416 nM
16. Ac-[αAllylPro]D[tBuAla][B5(5)]NT[Aib]AFN[PyrS2″][3Thi][Bta]V-NH2 (staple 1-4, 4-11) [Ac-PL3-Asp-Npg-B5-Asn-Thr-Aib-Ala-Phe-Asn-PyrS2-3Thi-BztA-Val-NH2]  475 nM
17. Ac-[αAllylPro]D[tBuAla][B5(5)]NT[Aib]AFN[PyrS2″][3Thi][Bta]L-NH2 (staple 1-4, 4-11) [Ac-PL3-Asp-Npg-B5-Asn-Thr-Aib-Ala-Phe-Asn-PyrS2-3Thi-BztA-Leu-NH2]  627 nM
18. Ac-[αAllylPro]D[tBuAla][B5(5)]NT[Aib]AFN[PyrS2″][3Thi][Bta]W-NH2 (staple 1-4, 4-11) [Ac-PL3-Asp-Npg-B5-Asn-Thr-Aib-Ala-Phe-Asn-PyrS2-3Thi-BztA-Trp-NH2]  754 nM
19. Ac-[αAllylPro]D[tBuAla][B5(3)]D[Phe(3-COOH)]QAFL[PyrS2″][Phe(2-CF3)][2F3MeW]A-NH2 (staple 1-4, 4-11) [Ac-PL3-Asp-Npg-B5-Asp-3COOHF-Gln-Ala-Phe-Leu-PyrS2-2F3MeF-2F3MeW-Ala-NH2]  4750 nM

target: full-length beta-Catenin (Uniprot ID P35222) (Homo sapiens (Human)) (UniProt P35222); assay: fluorescence polarization competition; full-length beta-catenin, competitor 5FAM-TCF4(10-53)
Target sequence in this assay (P35222 whole entry): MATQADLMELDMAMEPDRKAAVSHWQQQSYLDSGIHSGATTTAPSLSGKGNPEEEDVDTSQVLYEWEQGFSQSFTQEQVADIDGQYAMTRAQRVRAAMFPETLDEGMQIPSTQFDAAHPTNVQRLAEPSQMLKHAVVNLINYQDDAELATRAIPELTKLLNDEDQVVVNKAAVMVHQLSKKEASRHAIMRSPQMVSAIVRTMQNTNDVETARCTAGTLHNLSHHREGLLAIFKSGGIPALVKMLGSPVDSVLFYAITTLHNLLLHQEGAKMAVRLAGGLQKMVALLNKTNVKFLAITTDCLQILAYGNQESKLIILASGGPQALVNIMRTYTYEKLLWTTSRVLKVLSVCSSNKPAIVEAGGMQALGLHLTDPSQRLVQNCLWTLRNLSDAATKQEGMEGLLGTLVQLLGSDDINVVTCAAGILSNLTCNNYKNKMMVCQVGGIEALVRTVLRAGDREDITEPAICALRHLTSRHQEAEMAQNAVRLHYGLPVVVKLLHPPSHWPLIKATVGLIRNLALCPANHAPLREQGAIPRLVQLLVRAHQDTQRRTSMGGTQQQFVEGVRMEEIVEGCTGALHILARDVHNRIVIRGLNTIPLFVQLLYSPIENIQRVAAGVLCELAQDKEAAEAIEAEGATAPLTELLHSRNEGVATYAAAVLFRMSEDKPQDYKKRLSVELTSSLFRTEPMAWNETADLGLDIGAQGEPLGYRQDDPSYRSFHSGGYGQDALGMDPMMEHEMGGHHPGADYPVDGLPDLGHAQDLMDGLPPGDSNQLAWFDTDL

In order of rising IC50:
1. Ac-[αAllylPro]D[tBuAla][B5(5)]D[TfeGA][Lys(iPr)]AFT[PyrS2″][3Thi][Bta]V-NH2 (staple 1-4, 4-11) [I-1764]  23 nM
2. Ac-[αAllylPro]D[tBuAla][B5(5)]D[TfeGA][Lys(iPr)]AFT[PyrS2″][3Thi][Bta]L-NH2 (staple 1-4, 4-11) [I-1760]  32 nM
3. Ac-[αAllylPro]D[tBuAla][B5(5)]D[TfeGA][Lys(iPr)]AFL[PyrS2″][3Thi][Bta]F-NH2 (staple 1-4, 4-11) [I-1761]  39 nM
4. Ac-[αAllylPro]D[tBuAla][B5(5)]D[TfeGA][Lys(iPr)]AFL[PyrS2″][3Thi][Bta]V-NH2 (staple 1-4, 4-11) [I-1763]  52 nM
5. Ac-[αAllylPro]D[tBuAla][B5(5)]D[TfeGA][Lys(iPr)]AFL[PyrS2″][3Thi][Bta]L-NH2 (staple 1-4, 4-11) [I-1759]  57 nM
6. Ac-[αAllylPro]D[tBuAla][B5(4)]D[TfeGA]AAFL[PyrS2″][3Thi][Bta]V-NH2 (staple 1-4, 4-11; not fully specified) [I-1752]  87 nM
7. Ac-[αAllylPro]D[tBuAla][B5(5)]D[TfeGA]AAFL[PyrS2″][3Thi][Bta]F-NH2 (staple 1-4, 4-11) [I-1750]  104 nM
8. Ac-[αAllylPro]D[tBuAla][B5(4)]D[TfeGA]AAFL[PyrS2″][3Thi][Bta]V-NH2 (staple 1-4, 4-11; not fully specified) [I-1751]  104 nM
9. Ac-[αAllylPro]D[tBuAla][B5(5)]D[TfeGA]AAFL[PyrS2″][3Thi][Bta]L-NH2 (staple 1-4, 4-11) [I-1748]  141 nM
10. Ac-[αAllylPro]D[tBuAla][B5(4)]D[TfeGA]AAFL[PyrS2″][3Thi][Bta]F-NH2 (staple 1-4, 4-11; not fully specified) [I-1749]  145 nM
11. Ac-[αAllylPro]D[tBuAla][B5(4)]D[TfeGA]AAFT[PyrS2″][3Thi][Bta]V-NH2 (staple 1-4, 4-11; also: -CH=CH- in each staple reduced to -CH2-CH2-) [I-1758]  235 nM
12. Ac-[αAllylPro]D[tBuAla][B5(4)]D[TfeGA]AAFT[PyrS2″][3Thi][Bta]F-NH2 (staple 1-4, 4-11; also: -CH=CH- in each staple reduced to -CH2-CH2-) [I-1756]  329 nM
13. Ac-[αAllylPro]D[tBuAla][B5(4)]D[TfeGA]AAFL[PyrS2″][3Thi][Bta]V-NH2 (staple 1-4, 4-11; also: -CH=CH- in each staple reduced to -CH2-CH2-) [I-1757]  449 nM
14. Ac-[αAllylPro]D[tBuAla][B5(4)]D[TfeGA]AAFL[PyrS2″][3Thi][Bta]F-NH2 (staple 1-4, 4-11; also: -CH=CH- in each staple reduced to -CH2-CH2-) [I-1755]  570 nM
15. Ac-[αAllylPro]D[tBuAla][B5(4)]D[TfeGA]AAFT[PyrS2″][3Thi][Bta]L-NH2 (staple 1-4, 4-11; also: -CH=CH- in each staple reduced to -CH2-CH2-) [I-1754]  660 nM
16. Ac-[αAllylPro]D[tBuAla][B5(4)]D[TfeGA][Lys(iPr)]AFL[PyrS2″][3Thi][Bta]L-NH2 (staple 1-4, 4-11; also: -CH=CH- in each staple reduced to -CH2-CH2-) [I-1765]  667 nM
17. Ac-[αAllylPro]D[tBuAla][B5(4)]D[TfeGA]AAFL[PyrS2″][3Thi][Bta]L-NH2 (staple 1-4, 4-11; also: -CH=CH- in each staple reduced to -CH2-CH2-) [I-1753]  802 nM

From patent US20240116985A1, “STAPLED PEPTIDES AND METHODS THEREOF” (priority 2020, published 2024)
